# Data from patent US20210060072A1 (CRISPR THERAPEUTICS, published 2021).
# T1: CD70 on CD70-expressing cancer cell lines (A498, ACHN, SK-OV-3, Hs-766T, NCI-H1975, Calu-1, DU 145, MM.1S, … (human, UniProt P32970 1-193))
# T1 sequence (looked up): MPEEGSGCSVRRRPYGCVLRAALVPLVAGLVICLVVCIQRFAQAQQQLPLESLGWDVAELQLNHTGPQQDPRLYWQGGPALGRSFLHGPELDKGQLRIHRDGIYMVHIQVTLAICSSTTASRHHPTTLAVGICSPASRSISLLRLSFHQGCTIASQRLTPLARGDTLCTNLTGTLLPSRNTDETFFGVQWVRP
# Molecular target: T1, CD70 on CD70-expressing cancer cell …
# Experiment: cell-based or functional assay
binder,measurement,value
"anti-CD70 CAR (CD70B scFv with 41BB; CD8 transmembrane domain, 41BB co-stimulatory domain, CD3z signaling domain) (other) QVQLVQSGAEVKKPGASVKVSCKASGYTFTNYGMNWVRQAPGQGLKWMGWINTYTGEPTYADAFKGRVTMTRDTSISTAYMELSRLRSDDTAVYYCARDYGDYGMDYWGQGTTVTVSSGGGGSGGGGSGGGGSGDIVMTQSPDSLAVSLGERATINCRASKSVSTSGYSFMHWYQQKPGQPPKLLIYLASNLESGVPDRFSGSGSGTDFTLTISSLQAEDVAVYYCQHSREVPWTFGQGTKVEIKSAAAFVPVFLPAKPTTTPAPRPPTPAPTIASQPLSLRPEACRPAAGGAVHTRGLDFACDIYIWAPLAGTCGVLLLSLVITLYCNHRNRKRGRKKLLYIFKQPFMRPVQTTQEEDGCSCRFPEEEEGGCELRVKFSRSADAPAYQQGQNQLYNELNLGRREEYDVLDKRRGRDPEMGGKPRRKNPQEGLYNELQKDKMAEAYSEIGMKGERRRGKGHDGLYQGLSTATKDTYDALHMQALPPR","cell killing, 24 hours of co-culture, A498, ACHN, SK-OV-3 and Hs-766T cells, 1:1 effector:target cell ratio (3xKO and 4xKO CD70 CAR+ T cells)",> 50%
same,"cell killing, 24 hours of co-culture, A498, ACHN, SK-OV-3 and Hs-766T cells, 4:1 effector:target cell ratio (3xKO and 4xKO CD70 CAR+ T cells)",> 60%
same,"cell killing, 24 hours of co-culture, NCI-H1975, Calu-1 and DU 145 cells, 4:1 effector:target cell ratio",> 30%
same,"cell killing, 96 hours of co-culture, SKOV-3, Hs-766T and NIC-H1975 cells, 1:1 effector:target cell ratio",> 80%
